Legend:
[1] = target: HLA-G6 recombinant protein (without β2M association) (human, UniProt P17693 25-227); experiment: flow cytometry titration on HLA-G6 coated Bioplex beads
Protocol: (§1) The binding detection was carried out by flow cytometry using a PE-conjugated goat anti-mouse antibody. […] Measurements were performed in triplicate (n=3); error bars indicate SD.
(§2) Flow cytometry analyses were performed using LSR FORTESSA (Beckton Dickinson, Le Pont-de-Claix, France); data were analyzed with FlowJo X software (Tree star, Ashland, USA).

[2] = target: T1, HLA-G5 recombinant protein (without β2M association) (human, UniProt P17693-5 25-319); experiment: flow cytometry titration on β2M-free HLA-G5 coated Bioplex beads
T1 construct: domain: α1α2α3 domains of HLA-G5; No β2M; Coupled to Bioplex beads; also called hβ2M-free HLA-G5; recombinant HLA-G5 protein
Protocol: as §1, §2

Control peptide = target: T2, Control peptide; experiment: flow cytometry on Bioplex beads coated with the mutated peptide, PE-conjugated goat anti-mouse antibody
T2 peptide: CTHHPVADAEATLRC
Protocol: as §1
As specificity (negative) controls, uncoupled beads or beads coated with a mutated peptide [sequence]

- EC50 [1]: 0.12 µg/mL
- EC50 [2]: 0.028 µg/mL
- binding result (Control peptide): no binding (tested: 250 ng/ml)
B1: anti-HLA-G monoclonal antibody 15E7 (antibody, V domains shown)
VH: QVQLQQPGAELVRPGSSVKLSCKASGYTFTDYWMDWVKQRPGQGLEWIGTIYPSDSSTHYNQEFKGKATMTVDKSSSTAYMHLSSLTSEDSAVYYCAREGLAGVFYFDYWGQGTTLTVSS
VL: DVLMTQIPFSLPVSLGDQASISCRSSQSIVHRSGNTYLEWYLQKPGQSPKLLIYKVSNRFSGVPDRFSGSGSGTDFTLKISRVEAEDLGVYYCFQGSHLPPTFGGTTLEIK
notes: also called 15E7 mAb; 15E7 Mab
